Experimental data published in patent US20030232387A1.

How the values were obtained:
[1] = biological target: E-cadherin-IgG fusion protein (human) (UniProt P12830); assay: cell adhesion assay; buffer with EDTA (5 mM)
[2] = biological target: E-cadherin-IgG fusion protein (human) (UniProt P12830); assay: cell adhesion assay; buffer with Ca^2+, Mg^2+ and Mn^2+ (1 mM each)
[3] = biological target: E-cadherin-IgG fusion protein (human) (UniProt P12830); assay: cell adhesion assay; buffer with Ca^2+ and Mg^2+ (1 mM each)
[4] = biological target: human αEβ7 integrin expressed on cells (human) (UniProt P38570); assay: staining of K562 αEβ7 cells, 10 µg/ml; Ca^2+ and Mg^2+ (1 mM each)
[5] = biological target: human αEβ7 integrin expressed on cells (human) (UniProt P38570); assay: staining of K562 αEβ7 cells, 5 µg/ml; Ca^2+, Mg^2+ and Mn^2+ (1 mM each)
[6] = biological target: human αEβ7 integrin expressed on cells (human) (UniProt P38570); assay: staining of K562 αEβ7 cells, 2.5 µg/ml; Ca^2+ and Mg^2+ (1 mM each)

Sequence of human αEβ7 integrin expressed on cells (human) (P38570 other isoform, or with tags, fused parts or gaps limits assumed, chain 1 of 2): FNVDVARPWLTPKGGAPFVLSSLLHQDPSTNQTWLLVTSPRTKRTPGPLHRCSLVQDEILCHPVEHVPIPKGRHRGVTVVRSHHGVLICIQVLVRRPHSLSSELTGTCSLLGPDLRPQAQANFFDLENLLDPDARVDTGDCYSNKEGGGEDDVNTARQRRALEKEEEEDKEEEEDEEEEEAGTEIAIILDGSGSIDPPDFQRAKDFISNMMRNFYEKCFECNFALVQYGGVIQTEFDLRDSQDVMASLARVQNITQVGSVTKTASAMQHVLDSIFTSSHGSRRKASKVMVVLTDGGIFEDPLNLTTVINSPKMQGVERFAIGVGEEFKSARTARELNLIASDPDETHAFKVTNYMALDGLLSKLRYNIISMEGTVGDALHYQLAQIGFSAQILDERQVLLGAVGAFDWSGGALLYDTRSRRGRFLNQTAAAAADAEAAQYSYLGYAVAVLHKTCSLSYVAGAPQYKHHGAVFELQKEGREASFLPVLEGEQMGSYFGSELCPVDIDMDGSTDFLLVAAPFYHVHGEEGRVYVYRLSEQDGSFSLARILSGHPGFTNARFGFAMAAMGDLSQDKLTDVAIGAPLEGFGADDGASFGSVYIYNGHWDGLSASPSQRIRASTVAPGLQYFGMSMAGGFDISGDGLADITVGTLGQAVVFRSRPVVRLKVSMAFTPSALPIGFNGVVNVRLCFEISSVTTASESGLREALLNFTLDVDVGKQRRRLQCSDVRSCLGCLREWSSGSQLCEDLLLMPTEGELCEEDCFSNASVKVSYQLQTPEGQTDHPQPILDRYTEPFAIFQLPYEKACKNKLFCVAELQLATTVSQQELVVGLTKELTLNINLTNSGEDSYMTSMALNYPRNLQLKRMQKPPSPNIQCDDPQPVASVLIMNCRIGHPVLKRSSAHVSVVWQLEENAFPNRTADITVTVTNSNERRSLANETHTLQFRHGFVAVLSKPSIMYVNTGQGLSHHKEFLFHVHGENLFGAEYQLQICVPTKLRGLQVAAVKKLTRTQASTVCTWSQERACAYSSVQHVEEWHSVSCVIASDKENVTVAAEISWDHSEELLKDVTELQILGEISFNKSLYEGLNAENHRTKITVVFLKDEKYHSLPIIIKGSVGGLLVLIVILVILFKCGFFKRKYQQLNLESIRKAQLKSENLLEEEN
Sequence of human αEβ7 integrin expressed on cells (human) (chain, as listed by the source limits assumed, chain 2 of 2): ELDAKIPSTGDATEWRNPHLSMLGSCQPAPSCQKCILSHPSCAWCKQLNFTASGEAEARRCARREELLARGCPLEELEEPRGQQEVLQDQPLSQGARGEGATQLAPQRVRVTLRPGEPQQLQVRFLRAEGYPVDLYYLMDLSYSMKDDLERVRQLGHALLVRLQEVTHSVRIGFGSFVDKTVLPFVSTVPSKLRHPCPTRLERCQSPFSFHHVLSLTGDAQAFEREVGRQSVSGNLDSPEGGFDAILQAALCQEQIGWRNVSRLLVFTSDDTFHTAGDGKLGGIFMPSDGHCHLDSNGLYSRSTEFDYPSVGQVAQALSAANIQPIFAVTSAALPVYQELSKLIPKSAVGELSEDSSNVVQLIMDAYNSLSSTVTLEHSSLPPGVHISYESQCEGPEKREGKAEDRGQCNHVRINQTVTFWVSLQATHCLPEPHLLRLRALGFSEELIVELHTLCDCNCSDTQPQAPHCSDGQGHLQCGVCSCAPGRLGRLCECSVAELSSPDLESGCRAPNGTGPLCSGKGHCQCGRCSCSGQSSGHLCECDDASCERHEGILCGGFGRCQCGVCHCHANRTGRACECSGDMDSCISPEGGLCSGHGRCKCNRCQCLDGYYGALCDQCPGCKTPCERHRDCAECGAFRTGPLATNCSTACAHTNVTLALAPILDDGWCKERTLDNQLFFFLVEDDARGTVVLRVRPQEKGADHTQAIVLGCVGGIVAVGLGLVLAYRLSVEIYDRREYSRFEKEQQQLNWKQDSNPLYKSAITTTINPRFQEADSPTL

| Substance | % cells bound to immobilized E-cadherin [1] | % cells bound to immobilized E-cadherin [2] | % cells bound to immobilized E-cadherin [3] | Binding (mean fluorescence intensity) [4] | Binding (mean fluorescence intensity) [5] | Binding (mean fluorescence intensity) [6] |
| --- | --- | --- | --- | --- | --- | --- |
| human αEβ7 integrin expressed on cells (from UniProt P38570 19-1179; P26010 20-798) (receptor) | < 10% | 60% | 40% | – | – | – |
| E-cadherin-IgG fusion protein (from UniProt P12830 155-699) (Fc fusion) | – | – | – | 75 MFI | 100 MFI | < 25 MFI |
